Assay results published in the supplement of paper PMC10567573.

B1: YPEL3 (parent)
chain: SKPKTFQAYLDDCHRRYSCAHCRA

Variants of: B1
Experiment: protein stability index of a GFP-peptide fusion (GPS, HEK-293T) (PSI 1-6); higher = more stable
Conditions: c terminus: a fixed tail appended
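Also: lentivirally expressed fusions sorted by FACS into six bins by GFP to DsRed ratio, PSI derived from sequencing read proportions per bin multiplied by bin number.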

First: SKPKTFQAYLDDCHRCYSCAHCRA [R16C]
Second: SKPKTFQAYLDDCHRQYSCAHCRA [R16Q]
The protein stability index of the first is lower: 2.4 for the first, 2.5 for the second.

First: SKPKTFQAYLDDCHRSYSCAHCRA [R16S]
Second: SKPKTFQAYLDDCHRAYSCAHCRA [R16A]
The protein stability index of the first is lower: 1.59 for the first, 1.76 for the second.

Compared with SKPKTFQAYLDDCHRPYSCAHCRA [R16P], SKPKTFQAYLDDCHRGYSCAHCRA [R16G] is lower in protein stability index: 1.94 for the first, 1.33 for the second.

Going from SKPKTFQAYLDDCHRFYSCAHCRA [R16F] to SKPKTFQVYLDDCHRRYSCAHCRA [A8V], the protein stability index rises from 1.76 to 2.23.

First: SKPKTFQYYLDDCHRRYSCAHCRA [A8Y]
Second: SKPKTFQDYLDDCHRRYSCAHCRA [A8D]
The protein stability index of the first is higher: 2.02 for the first, 1.54 for the second.

Compared with SKPKTFQGYLDDCHRRYSCAHCRA [A8G], SKPKTFQIYLDDCHRRYSCAHCRA [A8I] is lower in protein stability index: 1.91 for the first, 1.81 for the second.

Compared with SKPKTFQNYLDDCHRRYSCAHCRA [A8N], SKPKTFQHYLDDCHRRYSCAHCRA [A8H] is higher in protein stability index: 2.49 for the first, 2.51 for the second.

First: SKPKTFQEYLDDCHRRYSCAHCRA [A8E]
Second: SKPKTFQAYLDDCHRRYSGAHCRA [C19G]
The protein stability index of the first is lower: 1.92 for the first, 2.68 for the second.

Compared with SKPKTFQAYLDDCHRRYSAAHCRA [C19A], SKPKTFQAYLDDCHRRYSVAHCRA [C19V] is lower in protein stability index: 2.51 for the first, 2.41 for the second.

First: SKPKTFQAYLDDCHRRYSLAHCRA [C19L]
Second: SKPKTFQAYLDDCHRRYSNAHCRA [C19N]
The protein stability index of the first is lower: 2.08 for the first, 3.42 for the second.

Going from SKPKTFQAYLDDCHRRYSKAHCRA [C19K] to SKPKTFQAYLDDCHRRYSFAHCRA [C19F], the protein stability index falls from 2.64 to 1.53.

Going from SKPKTPQAYLDDCHRRYSCAHCRA [F6P] to SKPKTEQAYLDDCHRRYSCAHCRA [F6E], the protein stability index rises from 2.96 to 3.4.

First: SKPKTYQAYLDDCHRRYSCAHCRA [F6Y]
Second: SKPKTLQAYLDDCHRRYSCAHCRA [F6L]
The protein stability index of the first is lower: 2.2 for the first, 2.27 for the second.

Going from SKPKTDQAYLDDCHRRYSCAHCRA [F6D] to SKPKTQQAYLDDCHRRYSCAHCRA [F6Q], the protein stability index falls from 3.54 to 3.21.

Compared with SKPKTFQAYLDDCHRRYSCAFCRA [H21F], SKPKTFQAYLDDCHRRYSCARCRA [H21R] is higher in protein stability index: 1.52 for the first, 3.32 for the second.

Compared with SKPKTFQAYLDDCHRRYSCATCRA [H21T], SKPKTFQAYLDDCHRRYSCAGCRA [H21G] is lower in protein stability index: 2.34 for the first, 1.28 for the second.

First: SKPKTFQAYLDDCHRRYSCANCRA [H21N]
Second: SKPKTFQAYLDDCHRRYSCACCRA [H21C]
The protein stability index of the first is lower: 1.57 for the first, 1.83 for the second.

Going from SKPKTFQAYLDDCHRRYSCAQCRA [H21Q] to SKPKTFGAYLDDCHRRYSCAHCRA [Q7G], the protein stability index rises from 2 to 2.22.

Going from SKPKTFCAYLDDCHRRYSCAHCRA [Q7C] to SKPKTFVAYLDDCHRRYSCAHCRA [Q7V], the protein stability index rises from 1.96 to 2.18.

Going from SKPKTFFAYLDDCHRRYSCAHCRA [Q7F] to SKPKTFWAYLDDCHRRYSCAHCRA [Q7W], the protein stability index falls from 3.06 to 1.73.

Going from SKPKTFQAYLDDCHRRYSCAHCDA [R23D] to SKPKTFQAYLDDCHRRYSCAHCVA [R23V], the protein stability index rises from 2.18 to 3.34.

First: SKPKTFQAYLDDCHRRYSCAHCFA [R23F]
Second: SKPKTFQAYLDDCHRRYSCAHCPA [R23P]
The protein stability index of the first is higher: 2.61 for the first, 2.11 for the second.

First: SKPKTFQAYLDDCHRRYSCAHCKA [R23K]
Second: SKPKTFQAYLDDCHRRYSCAHCHA [R23H]
The protein stability index of the first is lower: 2.03 for the first, 2.59 for the second.

Compared with SKPKTFQAYLDDEHRRYSCAHCRA [C13E], SKPKTFQAYLDDVHRRYSCAHCRA [C13V] is higher in protein stability index: 1.78 for the first, 2.54 for the second.

Going from SKPKTFQAYLDDAHRRYSCAHCRA [C13A] to SKPKTFQAYLDDIHRRYSCAHCRA [C13I], the protein stability index rises from 1.8 to 1.94.

Going from SKPKTFQAYLDDSHRRYSCAHCRA [C13S] to SKPKTFQAYLMDCHRRYSCAHCRA [D11M], the protein stability index rises from 2.25 to 2.47.

Going from SKPKTFQAYLADCHRRYSCAHCRA [D11A] to SKPKTFQAYLTDCHRRYSCAHCRA [D11T], the protein stability index rises from 1.89 to 2.14.

Compared with SKPKTFQAYLWDCHRRYSCAHCRA [D11W], SKPKTFQAYLKDCHRRYSCAHCRA [D11K] is higher in protein stability index: 1.5 for the first, 2.83 for the second.

First: SKPKTFQAYLYDCHRRYSCAHCRA [D11Y]
Second: SKPKTFQAYLQDCHRRYSCAHCRA [D11Q]
The protein stability index of the first is lower: 1.72 for the first, 2.21 for the second.

First: SKPKTFQAYLHDCHRRYSCAHCRA [D11H]
Second: SKPKTFQAKLDDCHRRYSCAHCRA [Y9K]
The protein stability index of the first is higher: 2.37 for the first, 1.93 for the second.

Compared with SKPKTFQADLDDCHRRYSCAHCRA [Y9D], SKPKTFQAQLDDCHRRYSCAHCRA [Y9Q] is higher in protein stability index: 2.38 for the first, 2.45 for the second.

Compared with SKPKTFQAGLDDCHRRYSCAHCRA [Y9G], SKPKTFQASLDDCHRRYSCAHCRA [Y9S] is lower in protein stability index: 2.85 for the first, 1.4 for the second.

Going from SKPKTFQATLDDCHRRYSCAHCRA [Y9T] to SKRKTFQAYLDDCHRRYSCAHCRA [P3R], the protein stability index rises from 1.52 to 2.05.

First: SKFKTFQAYLDDCHRRYSCAHCRA [P3F]
Second: SKGKTFQAYLDDCHRRYSCAHCRA [P3G]
The protein stability index of the first is higher: 3.23 for the first, 2.13 for the second.

Compared with SKWKTFQAYLDDCHRRYSCAHCRA [P3W], SKSKTFQAYLDDCHRRYSCAHCRA [P3S] is higher in protein stability index: 1.8 for the first, 1.82 for the second.

Going from SGPKTFQAYLDDCHRRYSCAHCRA [K2G] to SCPKTFQAYLDDCHRRYSCAHCRA [K2C], the protein stability index rises from 2.34 to 2.38.

Compared with SHPKTFQAYLDDCHRRYSCAHCRA [K2H], SVPKTFQAYLDDCHRRYSCAHCRA [K2V] is higher in protein stability index: 2 for the first, 2.22 for the second.

First: SYPKTFQAYLDDCHRRYSCAHCRA [K2Y]
Second: SNPKTFQAYLDDCHRRYSCAHCRA [K2N]
The protein stability index of the first is lower: 1.85 for the first, 2.34 for the second.

Going from SKPKTFQAYLDICHRRYSCAHCRA [D12I] to SKPKTFQAYLDQCHRRYSCAHCRA [D12Q], the protein stability index falls from 2.22 to 2.01.

Going from SKPKTFQAYLDSCHRRYSCAHCRA [D12S] to SKPKTFQAYLDYCHRRYSCAHCRA [D12Y], the protein stability index rises from 2 to 2.28.

Going from SKPKTFQAYLDPCHRRYSCAHCRA [D12P] to SKPKTFQAYLDLCHRRYSCAHCRA [D12L], the protein stability index falls from 2.57 to 2.34.

Compared with SKPKTFQAYSDDCHRRYSCAHCRA [L10S], SKPKTFQAYKDDCHRRYSCAHCRA [L10K] is higher in protein stability index: 2.8 for the first, 2.94 for the second.

Going from SKPKTFQAYVDDCHRRYSCAHCRA [L10V] to SKPKTFQAYTDDCHRRYSCAHCRA [L10T], the protein stability index rises from 1.57 to 2.14.

Going from SKPKTFQAYEDDCHRRYSCAHCRA [L10E] to SKPKTFQAYFDDCHRRYSCAHCRA [L10F], the protein stability index falls from 3.4 to 1.99.

Going from SKPKTFQAYLDDCHQRYSCAHCRA [R15Q] to SKPKTFQAYLDDCHHRYSCAHCRA [R15H], the protein stability index rises from 1.65 to 2.72.

First: SKPKTFQAYLDDCHDRYSCAHCRA [R15D]
Second: SKPKTFQAYLDDCHYRYSCAHCRA [R15Y]
The protein stability index of the first is higher: 2.67 for the first, 1.56 for the second.

Going from SKPKTFQAYLDDCHFRYSCAHCRA [R15F] to SKPKTFQAYLDDCHKRYSCAHCRA [R15K], the protein stability index rises from 2.07 to 2.15.
